How the values were obtained:
G9a and GLP = target: T1, G9a and GLP (Homo sapiens, UniProt Q96KQ7+Q9H9B1); experiment: Triple SILAC pull-down after UNC0638 treatment of 293T cells, DMSO/UNC0638 ratio of protein captured by 3×MBT; format: cell-based; design: endogenous in cells; host or cells: HEK 293T; conditions: for Relative to UNC0638 UNC Heavy / Relative to UNC0638 UNC Light: SILAC ratio DMSO/UNC0638 of protein pulled down with 3xMBT; for Relative to UNC0638 UNC Heavy: UNC0638 in heavy SILAC media; for Relative to UNC0638 UNC Light: UNC0638 in light SILAC media; for Relative to UNC0638 Average: average of UNC Light and UNC Heavy experiments;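 as to all read-outs here: mass spectrometry (Q-Exactive) SILAC quantitation, DMSO/UNC0638 ratio computed after subtracting 3×MBTD355N mutant pull-down background, only proteins with at least twofold 3×MBT over mutant signal considered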
T1 sequence (Q96KQ7 2-1210 limits assumed): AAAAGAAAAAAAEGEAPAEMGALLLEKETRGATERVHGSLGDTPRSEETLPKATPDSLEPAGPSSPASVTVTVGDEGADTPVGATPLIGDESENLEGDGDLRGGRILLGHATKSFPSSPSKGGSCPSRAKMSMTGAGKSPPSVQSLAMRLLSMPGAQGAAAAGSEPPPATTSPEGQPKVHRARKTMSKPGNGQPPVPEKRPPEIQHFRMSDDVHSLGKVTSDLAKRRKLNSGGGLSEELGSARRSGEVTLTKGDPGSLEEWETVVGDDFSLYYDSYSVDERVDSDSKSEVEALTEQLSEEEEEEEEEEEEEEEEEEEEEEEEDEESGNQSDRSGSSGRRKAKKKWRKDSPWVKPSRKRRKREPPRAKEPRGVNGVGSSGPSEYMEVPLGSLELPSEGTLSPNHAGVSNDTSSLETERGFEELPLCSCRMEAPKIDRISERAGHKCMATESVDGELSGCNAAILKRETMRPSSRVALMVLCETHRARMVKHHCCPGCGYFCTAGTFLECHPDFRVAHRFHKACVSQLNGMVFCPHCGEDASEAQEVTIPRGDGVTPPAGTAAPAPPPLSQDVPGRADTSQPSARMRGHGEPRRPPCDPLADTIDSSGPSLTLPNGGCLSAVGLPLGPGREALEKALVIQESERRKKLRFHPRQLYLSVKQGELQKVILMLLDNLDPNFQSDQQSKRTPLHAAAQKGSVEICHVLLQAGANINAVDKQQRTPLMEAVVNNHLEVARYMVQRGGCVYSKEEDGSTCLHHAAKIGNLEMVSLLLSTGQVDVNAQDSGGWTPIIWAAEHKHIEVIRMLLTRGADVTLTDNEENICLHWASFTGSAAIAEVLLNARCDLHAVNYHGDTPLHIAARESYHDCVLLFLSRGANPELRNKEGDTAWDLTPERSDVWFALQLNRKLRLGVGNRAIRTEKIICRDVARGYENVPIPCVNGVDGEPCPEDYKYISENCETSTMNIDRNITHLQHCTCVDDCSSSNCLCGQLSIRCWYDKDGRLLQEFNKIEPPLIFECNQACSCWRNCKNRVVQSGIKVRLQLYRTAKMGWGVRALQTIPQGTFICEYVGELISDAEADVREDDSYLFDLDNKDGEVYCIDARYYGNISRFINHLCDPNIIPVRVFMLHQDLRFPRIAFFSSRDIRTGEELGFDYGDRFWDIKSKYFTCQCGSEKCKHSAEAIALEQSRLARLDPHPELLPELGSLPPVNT
T1 sequence (Q9H9B1 2-1298 limits assumed): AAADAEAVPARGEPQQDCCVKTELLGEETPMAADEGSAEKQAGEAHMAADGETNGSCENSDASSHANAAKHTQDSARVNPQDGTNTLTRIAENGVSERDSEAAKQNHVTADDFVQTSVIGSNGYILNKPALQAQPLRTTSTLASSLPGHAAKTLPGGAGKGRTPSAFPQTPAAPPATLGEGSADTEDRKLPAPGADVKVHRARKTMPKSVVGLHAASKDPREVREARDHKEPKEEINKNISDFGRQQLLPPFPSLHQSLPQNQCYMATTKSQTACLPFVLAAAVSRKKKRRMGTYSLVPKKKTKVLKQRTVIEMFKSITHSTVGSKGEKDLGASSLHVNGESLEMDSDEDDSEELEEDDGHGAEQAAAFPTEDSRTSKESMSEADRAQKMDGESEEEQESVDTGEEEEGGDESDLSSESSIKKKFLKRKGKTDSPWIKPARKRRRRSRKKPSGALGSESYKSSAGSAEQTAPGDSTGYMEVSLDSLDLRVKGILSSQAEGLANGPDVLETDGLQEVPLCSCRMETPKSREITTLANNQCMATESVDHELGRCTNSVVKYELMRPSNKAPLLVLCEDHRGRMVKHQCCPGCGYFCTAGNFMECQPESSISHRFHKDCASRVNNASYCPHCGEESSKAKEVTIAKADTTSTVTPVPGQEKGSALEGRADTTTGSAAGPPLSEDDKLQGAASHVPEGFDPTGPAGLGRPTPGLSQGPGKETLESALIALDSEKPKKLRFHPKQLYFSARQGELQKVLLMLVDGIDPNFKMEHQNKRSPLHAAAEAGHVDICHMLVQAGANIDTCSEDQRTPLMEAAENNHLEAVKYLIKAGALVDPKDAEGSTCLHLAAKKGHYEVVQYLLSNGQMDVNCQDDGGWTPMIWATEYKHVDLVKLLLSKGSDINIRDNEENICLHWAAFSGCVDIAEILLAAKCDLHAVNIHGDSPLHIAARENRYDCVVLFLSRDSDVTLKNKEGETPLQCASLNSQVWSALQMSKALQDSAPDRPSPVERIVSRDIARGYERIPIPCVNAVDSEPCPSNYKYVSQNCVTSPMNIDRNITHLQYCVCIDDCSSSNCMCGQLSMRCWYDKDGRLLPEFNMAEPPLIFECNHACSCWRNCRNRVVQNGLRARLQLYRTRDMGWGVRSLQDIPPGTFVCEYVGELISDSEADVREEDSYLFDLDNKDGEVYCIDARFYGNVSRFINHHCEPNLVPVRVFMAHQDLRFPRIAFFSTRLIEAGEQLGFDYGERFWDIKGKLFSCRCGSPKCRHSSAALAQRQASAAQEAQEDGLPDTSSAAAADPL

3×MBT domain of L3MBTL1 = experiment: Triple SILAC pull-down, 3xMBT/3xMBTD355N ratio (cytoplasmic, nuclear and chromatin fractions of 293T cells); format: binding, human; conditions: SILAC ratio, pull-down 3xMBT vs 3xMBTD355N; for 3xMBT/D355N UNC Heavy: experiment with UNC0638 in heavy SILAC media; for 3xMBT/D355N UNC Light: experiment with UNC0638 in light SILAC media;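 as to all read-outs here: proteins quantified with MaxQuant, requiring at least two unique peptides and quantification in both label directions, normalized to the mean of proteins from a digested loading control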

B1: DSTN (protein, UniProt P60981 2-165, looked up)
Destrin: ASGVQVADEVCRIFYDMKVRKCSTPEEIKKRKKAVIFCLSADKKCIIVEEGKEILVGDVGVTITDPFKHFVGMLPEKDCRYALYDASFETKESRKEELMFFLWAPELAPLKSKMIYASSKDAIKKKFQGIKHECQANGPEDLNRACIAEKLGGSLIVAFEGCPV
B1 was tested, and the “Relative to UNC0638 UNC Heavy” value (G9a and GLP) was 0.24 log base 2, the “Relative to UNC0638 UNC Light” value (G9a and GLP) was 0.04 log base 2 and the “Relative to UNC0638 Average” value (G9a and GLP) was 0.14 log base 2. The “3xMBT/D355N UNC Heavy” value (3×MBT domain of L3MBTL1) was 3.00 log base 2 and the “3xMBT/D355N UNC Light” value (3×MBT domain of L3MBTL1) was 2.54 log base 2.

B2: SH3PXD2B (protein, UniProt A1X283 1-911, looked up)
SH3 and PX domain-containing …: MPPRRSIVEVKVLDVQKRRVPNKHYVYIIRVTWSSGSTEAIYRRYSKFFDLQMQMLDKFPMEGGQKDPKQRIIPFLPGKILFRRSHIRDVAVKRLIPIDEYCKALIQLPPYISQCDEVLQFFETRPEDLNPPKEEHIGKKKSGGDQTSVDPMVLEQYVVVANYQKQESSEISLSVGQVVDIIEKNESGWWFVSTAEEQGWVPATCLEGQDGVQDEFSLQPEEEEKYTVIYPYTARDQDEMNLERGAVVEVIQKNLEGWWKIRYQGKEGWAPASYLKKNSGEPLPPKPGPGSPSHPGALDLDGVSRQQNAVGREKELLSSQRDGRFEGRPVPDGDAKQRSPKMRQRPPPRRDMTIPRGLNLPKPPIPPQVEEEYYTIAEFQTTIPDGISFQAGLKVEVIEKNLSGWWYIQIEDKEGWAPATFIDKYKKTSNASRPNFLAPLPHEVTQLRLGEAAALENNTGSEATGPSRPLPDAPHGVMDSGLPWSKDWKGSKDVLRKASSDMSASAGYEEISDPDMEEKPSLPPRKESIIKSEGELLERERERQRTEQLRGPTPKPPGVILPMMPAKHIPPARDSRRPEPKPDKSRLFQLKNDMGLECGHKVLAKEVKKPNLRPISKSKTDLPEEKPDATPQNPFLKSRPQVRPKPAPSPKTEPPQGEDQVDICNLRSKLRPAKSQDKSLLDGEGPQAVGGQDVAFSRSFLPGEGPGRAQDRTGKQDGLSPKEISCRAPPRPAKTTDPVSKSVPVPLQEAPQQRPVVPPRRPPPPKKTSSSSRPLPEVRGPQCEGHESRAAPTPGRALLVPPKAKPFLSNSLGGQDDTRGKGSLGPWGTGKIGENREKAAAASVPNADGLKDSLYVAVADFEGDKDTSSFQEGTVFEVREKNSSGWWFCQVLSGAPSWEGWIPSNYLRKKP
In the case of B2, the “Relative to UNC0638 UNC Heavy” value (G9a and GLP) is reported as −0.09 log base 2, the “Relative to UNC0638 UNC Light” value (G9a and GLP) is reported as 0.37 log base 2 and the “Relative to UNC0638 Average” value (G9a and GLP) is reported as 0.14 log base 2. For the same molecule, the “3xMBT/D355N UNC Heavy” value (3×MBT domain of L3MBTL1) was 3.07 log base 2 and the “3xMBT/D355N UNC Light” value (3×MBT domain of L3MBTL1) was 3.71 log base 2.

B3: SF3B1 (protein, UniProt O75533 1-1304, looked up)
Splicing factor 3B subunit 1: MAKIAKTHEDIEAQIREIQGKKAALDEAQGVGLDSTGYYDQEIYGGSDSRFAGYVTSIAATELEDDDDDYSSSTSLLGQKKPGYHAPVALLNDIPQSTEQYDPFAEHRPPKIADREDEYKKHRRTMIISPERLDPFADGGKTPDPKMNARTYMDVMREQHLTKEEREIRQQLAEKAKAGELKVVNGAAASQPPSKRKRRWDQTADQTPGATPKKLSSWDQAETPGHTPSLRWDETPGRAKGSETPGATPGSKIWDPTPSHTPAGAATPGRGDTPGHATPGHGGATSSARKNRWDETPKTERDTPGHGSGWAETPRTDRGGDSIGETPTPGASKRKSRWDETPASQMGGSTPVLTPGKTPIGTPAMNMATPTPGHIMSMTPEQLQAWRWEREIDERNRPLSDEELDAMFPEGYKVLPPPAGYVPIRTPARKLTATPTPLGGMTGFHMQTEDRTMKSVNDQPSGNLPFLKPDDIQYFDKLLVDVDESTLSPEEQKERKIMKLLLKIKNGTPPMRKAALRQITDKAREFGAGPLFNQILPLLMSPTLEDQERHLLVKVIDRILYKLDDLVRPYVHKILVVIEPLLIDEDYYARVEGREIISNLAKAAGLATMISTMRPDIDNMDEYVRNTTARAFAVVASALGIPSLLPFLKAVCKSKKSWQARHTGIKIVQQIAILMGCAILPHLRSLVEIIEHGLVDEQQKVRTISALAIAALAEAATPYGIESFDSVLKPLWKGIRQHRGKGLAAFLKAIGYLIPLMDAEYANYYTREVMLILIREFQSPDEEMKKIVLKVVKQCCGTDGVEANYIKTEILPPFFKHFWQHRMALDRRNYRQLVDTTVELANKVGAAEIISRIVDDLKDEAEQYRKMVMETIEKIMGNLGAADIDHKLEEQLIDGILYAFQEQTTEDSVMLNGFGTVVNALGKRVKPYLPQICGTVLWRLNNKSAKVRQQAADLISRTAVVMKTCQEEKLMGHLGVVLYEYLGEEYPEVLGSILGALKAIVNVIGMHKMTPPIKDLLPRLTPILKNRHEKVQENCIDLVGRIADRGAEYVSAREWMRICFELLELLKAHKKAIRRATVNTFGYIAKAIGPHDVLATLLNNLKVQERQNRVCTTVAIAIVAETCSPFTVLPALMNEYRVPELNVQNGVLKSLSFLFEYIGEMGKDYIYAVTPLLEDALMDRDLVHRQTASAVVQHMSLGVYGFGCEDSLNHLLNYVWPNVFETSPHVIQAVMGALEGLRVAIGPCRMLQYCLQGLFHPARKVRDVYWKIYNSIYIGSQDALIAHYPRIYNDDKNTYIRYELDYIL
With B3 the “Relative to UNC0638 UNC Heavy” value (G9a and GLP) was 0.11 log base 2, the “Relative to UNC0638 UNC Light” value (G9a and GLP) was 0.18 log base 2 and the “Relative to UNC0638 Average” value (G9a and GLP) was 0.14 log base 2. For the same molecule, the “3xMBT/D355N UNC Heavy” value (3×MBT domain of L3MBTL1) was 3.17 log base 2 and the “3xMBT/D355N UNC Light” value (3×MBT domain of L3MBTL1) was 3.31 log base 2.
